The target of test [1] is T1, Human Upf1-CH-HD (115-914 amino acids) (human) (UniProt Q92900).
T1 sequence: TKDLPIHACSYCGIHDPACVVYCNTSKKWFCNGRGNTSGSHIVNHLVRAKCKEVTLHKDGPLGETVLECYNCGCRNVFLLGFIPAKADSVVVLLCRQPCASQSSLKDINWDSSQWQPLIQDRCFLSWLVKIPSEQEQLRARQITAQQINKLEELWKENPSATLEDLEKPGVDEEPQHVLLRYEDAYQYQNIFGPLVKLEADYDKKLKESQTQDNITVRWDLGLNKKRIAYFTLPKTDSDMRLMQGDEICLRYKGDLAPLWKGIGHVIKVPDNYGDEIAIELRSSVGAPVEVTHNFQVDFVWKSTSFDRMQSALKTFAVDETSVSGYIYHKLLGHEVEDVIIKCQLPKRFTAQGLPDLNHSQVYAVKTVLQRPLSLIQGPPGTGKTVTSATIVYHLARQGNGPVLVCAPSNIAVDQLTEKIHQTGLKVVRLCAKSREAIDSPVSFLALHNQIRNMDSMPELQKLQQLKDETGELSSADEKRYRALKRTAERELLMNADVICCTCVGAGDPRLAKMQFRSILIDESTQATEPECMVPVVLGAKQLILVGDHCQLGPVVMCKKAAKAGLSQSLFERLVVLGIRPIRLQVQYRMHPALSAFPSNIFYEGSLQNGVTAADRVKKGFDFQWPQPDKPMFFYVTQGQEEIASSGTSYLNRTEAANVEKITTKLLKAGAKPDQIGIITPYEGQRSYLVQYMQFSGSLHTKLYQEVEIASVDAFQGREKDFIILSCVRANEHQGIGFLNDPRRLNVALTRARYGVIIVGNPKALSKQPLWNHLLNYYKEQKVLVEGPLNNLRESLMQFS

In test [2] the target is T1, Human Upf1-CH-HD (115-914 amino acids) (human). The source holds these as a separate data set.
For test [3] the target is unchanged. This is another data set of the same source.

This note sets out measurements from PMC4506499.

Take “Human Upf2 (761-1227 amino acids) (from UniProt Q9HAU5 761-1227) (domain or fragment)”: the activity ratio Ac=u/(u+b) (unwinding events over unwinding plus binding events), magnetic tweezers on a DNA hairpin; Upf1-CH-HD alone Ac=49% in test [1] stood at 81%. Further, the share of Upf1-CH-HD/Upf2 binding events with a normal rising edge but a falling edge interrupted by blocking (magnetic tweezers, DNA hairpin) in test [2] stood at 76%. The processivity factor fp (enzymes reaching the hairpin apex over total bursts), magnetic tweezers on the 1.2 kb DNA hairpin (fraction (24 of 25 bursts)) in test [3] is 0.96.
